Measurements as given in publication PMC8024055 (Nature, 2020).
Positions count from the first letter of the chain named. Names may count otherwise. Each block holds one binder with its values, some of them ahead of it.

Assays:
SEC = target: the molecule itself; test: SEC
[1] = target: T1, His-MBP-FBXL17^310-701/Skp1 complex ( | human, UniProt Q9UF56;P63208); test: FRET or BRET
FRET or BRET = target: the molecule itself; test: FRET or BRET
[2] = target: FBXL17^310-701 (tags removed, in the structures) (UniProt Q9UF56 310-701); test: crystal structure
Chain of FBXL17^310-701 (tags removed, in the structures) (Q9UF56 310-701): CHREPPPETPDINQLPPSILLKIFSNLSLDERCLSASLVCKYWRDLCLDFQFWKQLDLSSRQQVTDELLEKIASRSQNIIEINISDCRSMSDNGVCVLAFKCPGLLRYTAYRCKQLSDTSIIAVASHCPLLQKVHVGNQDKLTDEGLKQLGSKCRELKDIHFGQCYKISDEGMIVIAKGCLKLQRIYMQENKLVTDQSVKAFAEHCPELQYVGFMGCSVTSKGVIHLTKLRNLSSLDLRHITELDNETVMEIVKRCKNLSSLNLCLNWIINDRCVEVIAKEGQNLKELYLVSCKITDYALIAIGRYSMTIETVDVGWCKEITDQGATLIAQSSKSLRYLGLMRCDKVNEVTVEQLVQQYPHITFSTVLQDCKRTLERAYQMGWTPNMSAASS

[3] = target: T1, His-MBP-FBXL17^310-701/Skp1 complex; test: pull-down

T1 sequence (Q9UF56 310-701, chain 1 of 2): as the sequence (Q9UF56 310-701) above
T1 sequence (P63208 whole entry, chain 2 of 2): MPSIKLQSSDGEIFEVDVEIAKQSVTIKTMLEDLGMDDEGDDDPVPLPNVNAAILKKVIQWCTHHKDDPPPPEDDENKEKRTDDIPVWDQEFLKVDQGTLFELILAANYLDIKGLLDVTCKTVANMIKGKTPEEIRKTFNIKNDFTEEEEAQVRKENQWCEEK

B1: KEAP1^48-180 S172A (recombinant BTB domain, called wild type) (domain or fragment)
chain: GNRTFSYTLEDHTKQAFGIMNELRLSQQLCDVTLQVKYQDAPAAQFMAHKVVLASSSPVFKAMFTNGLREQGMEVVSIEGIHPKVMERLIEFAYTASISMGEKCVLHVMNGAVMYQIDSVVRACADFLVQQLD
- stoichiometry N (SEC): 2

- binding result [1]: binds
B2: KEAP1^48-180 S172A/F64A/R116C labeled with Alexa Fluor 555 or Alexa Fluor 647 (domain or fragment)
chain: B1 chain with F17A, R69C
- binding result (FRET or BRET): binds

B3: KEAP1^48-180 S172A/V98A (recombinant BTB domain) (domain or fragment)
chain: B1 chain with V51A
- stoichiometry N (SEC): 2

- binding result [2]: binds
- binding result [3]: binds
B4: KEAP1^48-180 S172A/F64A (recombinant BTB domain) (domain or fragment)
chain: B1 chain with F17A
- stoichiometry N (SEC): 2
